The values below come from paper PMC5321536 (Angewandte Chemie (International ed. in English), 2017).

This data set deals with the molecule itself. As to the kind of experiment: solution-state diffusion-ordered NMR spectroscopy.

B1: isolated cytoplasmic (soluble) C-terminal domain of CzcD (CzcD_(209-316)) (domain or fragment, Cupriavidus metallidurans CH34, UniProt P13512 209-316, looked up)
chain: EGVPDDVDLAEVEKQILATPGVKSFHDLHIWALTSGKASLTVHVVNDTAVNPEMEVLPELKQMLADKFDITHVTIQFELAPCEQADAAQHFNASPALVGSKSLAAGGN
By stoichiometry N is commonly meant the number of molecules, sites or subunits per partner or assembly. For B1, the “stoichiometry N” value was 2.
